Measured values as given in article PMC12394722, “Regulatory role of the N-terminal intrinsically disordered region of the DEAD-box RNA helicase DDX3X in selective RNA recognition”.

Tests used:
RR-3 fragment [1] = target: T1, RR-3 fragment (human, UniProt O00571 106-127); experiment: NMR; little to no change; EMSA: 20 mM K-phosphate pH 7.0, 125 mM KCl, 1 mM DTT, 0.005% Tween-20, 10% glycerol (1 mM ATP-Mg for MBP-FL/Core-C), gel at room temperature; ITC: 20 mM K-phosphate pH 7.0, 50 mM KCl, 25 C; NMR: 200 mM KCl (also 120 mM), 10 C, 50 uM; conditions: protein: recombinant, tags: His6-SUMO tag cleaved
T1 chain: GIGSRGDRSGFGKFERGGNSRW

RR-1 fragment [2] = target: T2, RR-1 fragment (human, UniProt O00571 31-61); experiment: as above; conditions: protein: recombinant, tags: His6-SUMO tag cleaved
T2 sequence (O00571 31-61): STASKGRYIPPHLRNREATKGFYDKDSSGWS

RR-2 fragment [3] = target: T3, RR-2 fragment (human, UniProt O00571 73-102); experiment: as above; conditions: protein: recombinant, tags: His6-SUMO tag cleaved
T3 sequence (O00571 73-102): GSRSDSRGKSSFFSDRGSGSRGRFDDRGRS

MBP-FL DDX3X [4] = target: T4, MBP-FL DDX3X (human, UniProt O00571 1-662); experiment: EMSA; 1 mM ATP-Mg; EMSA: 20 mM K-phosphate pH 7.0, 125 mM KCl, 1 mM DTT, 0.005% Tween-20, 10% glycerol (1 mM ATP-Mg for MBP-FL/Core-C), gel at room temperature; ITC: 20 mM K-phosphate pH 7.0, 50 mM KCl, 25 C; NMR: 200 mM KCl (also 120 mM), 10 C, 50 uM; conditions: protein: recombinant, tags: N-terminal His6-MBP, label: 5'-FAM
T4 sequence (O00571 whole entry): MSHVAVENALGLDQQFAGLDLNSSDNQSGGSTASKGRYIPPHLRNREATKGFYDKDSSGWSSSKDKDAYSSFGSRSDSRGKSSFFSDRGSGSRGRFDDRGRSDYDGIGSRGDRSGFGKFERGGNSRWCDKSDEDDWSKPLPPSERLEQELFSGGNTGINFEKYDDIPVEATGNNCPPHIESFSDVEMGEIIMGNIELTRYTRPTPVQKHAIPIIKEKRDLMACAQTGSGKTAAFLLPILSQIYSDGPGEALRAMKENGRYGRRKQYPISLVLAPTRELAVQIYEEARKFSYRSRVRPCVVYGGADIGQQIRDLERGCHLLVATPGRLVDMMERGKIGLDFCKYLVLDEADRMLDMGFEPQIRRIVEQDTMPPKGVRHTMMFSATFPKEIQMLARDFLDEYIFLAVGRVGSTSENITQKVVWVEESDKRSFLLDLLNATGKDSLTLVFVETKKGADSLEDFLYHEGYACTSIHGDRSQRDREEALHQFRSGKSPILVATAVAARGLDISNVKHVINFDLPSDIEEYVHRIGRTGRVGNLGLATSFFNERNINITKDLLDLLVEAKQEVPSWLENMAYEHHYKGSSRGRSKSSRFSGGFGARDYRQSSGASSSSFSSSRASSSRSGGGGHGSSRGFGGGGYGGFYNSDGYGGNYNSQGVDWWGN

MBP-Core-C DDX3X = MBP-Core-C DDX3X (human, UniProt O00571 132-662); experiment: as above; conditions: protein: recombinant, tags: N-terminal His6-MBP, label: 5'-FAM
MBP-Core-C DDX3X, sequence (O00571 132-662): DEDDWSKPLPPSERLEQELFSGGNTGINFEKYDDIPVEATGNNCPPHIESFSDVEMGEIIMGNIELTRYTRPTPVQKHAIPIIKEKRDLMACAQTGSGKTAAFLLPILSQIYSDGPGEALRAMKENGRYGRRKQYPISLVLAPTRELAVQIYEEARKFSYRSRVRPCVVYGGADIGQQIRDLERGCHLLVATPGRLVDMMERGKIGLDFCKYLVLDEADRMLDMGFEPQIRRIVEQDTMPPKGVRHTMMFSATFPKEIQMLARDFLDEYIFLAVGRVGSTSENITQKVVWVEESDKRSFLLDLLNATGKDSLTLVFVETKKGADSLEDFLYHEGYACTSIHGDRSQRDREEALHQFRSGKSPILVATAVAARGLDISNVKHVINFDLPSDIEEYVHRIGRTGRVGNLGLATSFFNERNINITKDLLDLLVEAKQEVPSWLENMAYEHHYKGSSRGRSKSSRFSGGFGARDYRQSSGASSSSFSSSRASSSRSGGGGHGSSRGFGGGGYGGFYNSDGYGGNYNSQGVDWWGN

DDX3X N-IDR [5] = target: T5, DDX3X N-IDR (human, UniProt O00571 1-132); experiment: EMSA; 125 mM KCl; EMSA: 20 mM K-phosphate pH 7.0, 125 mM KCl, 1 mM DTT, 0.005% Tween-20, 10% glycerol (1 mM ATP-Mg for MBP-FL/Core-C), gel at room temperature; ITC: 20 mM K-phosphate pH 7.0, 50 mM KCl, 25 C; NMR: 200 mM KCl (also 120 mM), 10 C, 50 uM; conditions: protein: recombinant, tags: His6-SUMO tag cleaved (Ulp1)
T5 sequence (O00571 1-132): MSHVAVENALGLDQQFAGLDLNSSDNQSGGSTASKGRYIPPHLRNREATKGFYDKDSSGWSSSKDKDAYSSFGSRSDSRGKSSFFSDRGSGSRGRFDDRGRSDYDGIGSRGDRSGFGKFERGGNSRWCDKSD

DDX3X N-IDR [6] = target: T5, DDX3X N-IDR; experiment: NMR; 200 mM KCl; EMSA: 20 mM K-phosphate pH 7.0, 125 mM KCl, 1 mM DTT, 0.005% Tween-20, 10% glycerol (1 mM ATP-Mg for MBP-FL/Core-C), gel at room temperature; ITC: 20 mM K-phosphate pH 7.0, 50 mM KCl, 25 C; NMR: 200 mM KCl (also 120 mM), 10 C, 50 uM; conditions: protein: recombinant; tags: His6-SUMO tag cleaved (Ulp1); label: 5'-FAM in EMSA; G4, heterogeneous
DDX3X N-IDR [7] = target: T5, DDX3X N-IDR; experiment: NMR; EMSA: 20 mM K-phosphate pH 7.0, 125 mM KCl, 1 mM DTT, 0.005% Tween-20, 10% glycerol (1 mM ATP-Mg for MBP-FL/Core-C), gel at room temperature; ITC: 20 mM K-phosphate pH 7.0, 50 mM KCl, 25 C; NMR: 200 mM KCl (also 120 mM), 10 C, 50 uM; conditions: protein: recombinant, tags: His6-SUMO tag cleaved (Ulp1)
RR-3 fragment [8] = target: T1, RR-3 fragment; experiment: as above; conditions: protein: recombinant; tags: His6-SUMO tag cleaved; parallel G4, dimer of 2 strands
RR-1 fragment [9] = target: T2, RR-1 fragment; experiment: as above; conditions: protein: recombinant, tags: His6-SUMO tag cleaved
RR-2 fragment [10] = target: T3, RR-2 fragment; experiment: as above; conditions: protein: recombinant, tags: His6-SUMO tag cleaved
DDX3X N-IDR [11] = target: T5, DDX3X N-IDR; experiment: ITC; 50 mM KCl; dimer concentration; EMSA: 20 mM K-phosphate pH 7.0, 125 mM KCl, 1 mM DTT, 0.005% Tween-20, 10% glycerol (1 mM ATP-Mg for MBP-FL/Core-C), gel at room temperature; ITC: 20 mM K-phosphate pH 7.0, 50 mM KCl, 25 C; NMR: 200 mM KCl (also 120 mM), 10 C, 50 uM; conditions: protein: recombinant; tags: His6-SUMO tag cleaved (Ulp1); parallel G4, dimer of 2 strands
MBP-FL DDX3X [12] = target: T4, MBP-FL DDX3X; experiment: EMSA; little to no shift; 1 mM ATP-Mg; EMSA: 20 mM K-phosphate pH 7.0, 125 mM KCl, 1 mM DTT, 0.005% Tween-20, 10% glycerol (1 mM ATP-Mg for MBP-FL/Core-C), gel at room temperature; ITC: 20 mM K-phosphate pH 7.0, 50 mM KCl, 25 C; NMR: 200 mM KCl (also 120 mM), 10 C, 50 uM; conditions: protein: recombinant, tags: N-terminal His6-MBP
DDX3X N-IDR [13] = target: T5, DDX3X N-IDR; experiment: EMSA; little to no shift; 125 mM KCl; EMSA: 20 mM K-phosphate pH 7.0, 125 mM KCl, 1 mM DTT, 0.005% Tween-20, 10% glycerol (1 mM ATP-Mg for MBP-FL/Core-C), gel at room temperature; ITC: 20 mM K-phosphate pH 7.0, 50 mM KCl, 25 C; NMR: 200 mM KCl (also 120 mM), 10 C, 50 uM; conditions: protein: recombinant; tags: His6-SUMO tag cleaved (Ulp1); label: 3'-FAM
DDX3X N-IDR [14] = target: T5, DDX3X N-IDR; experiment: ITC; 50 mM KCl; EMSA: 20 mM K-phosphate pH 7.0, 125 mM KCl, 1 mM DTT, 0.005% Tween-20, 10% glycerol (1 mM ATP-Mg for MBP-FL/Core-C), gel at room temperature; ITC: 20 mM K-phosphate pH 7.0, 50 mM KCl, 25 C; NMR: 200 mM KCl (also 120 mM), 10 C, 50 uM; conditions: protein: recombinant; tags: His6-SUMO tag cleaved (Ulp1); G4 monomer
RR-3 fragment [15] = target: T1, RR-3 fragment; experiment: NMR; smaller reduction than telomeric GQ; EMSA: 20 mM K-phosphate pH 7.0, 125 mM KCl, 1 mM DTT, 0.005% Tween-20, 10% glycerol (1 mM ATP-Mg for MBP-FL/Core-C), gel at room temperature; ITC: 20 mM K-phosphate pH 7.0, 50 mM KCl, 25 C; NMR: 200 mM KCl (also 120 mM), 10 C, 50 uM; conditions: protein: recombinant; tags: His6-SUMO tag cleaved; G4 monomer
[16] = parallel G4, dimer of 2 strands

UUUUUUUUUU (ssRNA) [poly-U10]
binding result (RR-3 fragment [1]): no binding | binding result (RR-1 fragment [2]): no binding | binding result (RR-2 fragment [3]): no binding

UGUGGGAGGGGCGGGUCUGGGUGC (structured_RNA) [FAM-NRAS GQ RNA]
Kd (MBP-FL DDX3X [4]; G4 monomer): 43 ± 4 nM | Kd (MBP-Core-C DDX3X; G4 monomer): 201 ± 5 nM | Kd (DDX3X N-IDR [5]; label: 5'-FAM, G4 monomer): 54 ± 12 nM

GCGGAGGGCGAGGCGGCGUGGACAG (structured_RNA) [RAC1 53-77]
Kd (DDX3X N-IDR [5]; label: 5'-FAM in EMSA, G4): 510 ± 80 nM

GCUGACGGGCGCGGCGGGGGCGGCC (structured_RNA) [ODC1 279-303]
binding result (DDX3X N-IDR [6]): binds

AUACCUUGUUUAUAGUACCUUCUCU (ssRNA) [MITF 7-31]
binding result (DDX3X N-IDR [7]; non-GQ): no binding

UGUAGAAAGAGCAGAUCUAGAUGC (ssRNA) [NRAS mutant RNA]
binding result (RR-3 fragment [1]; GQ abolished): no binding | binding result (RR-1 fragment [2]; GQ abolished): no binding | binding result (RR-2 fragment [3]; GQ abolished): no binding

UAGGGUUAGGGU (structured_RNA) [telomeric GQ RNA]
binding result (RR-3 fragment [8]): binds | binding result (RR-1 fragment [9]; [16]): binds | binding result (RR-2 fragment [10]; [16]): binds | Kd (DDX3X N-IDR [11]): 3400 nM

B1: GC-14mer dsRNA (NMR) (dsRNA)
RNA 1: GGGCGGGCCCGCCC
RNA 2: GGGCGGGCCCGCCC
binding result (RR-3 fragment [1]; blunt, self-complementary): no binding | binding result (RR-1 fragment [2]; blunt, self-complementary): no binding | binding result (RR-2 fragment [3]; blunt, self-complementary): no binding

GGCACUUCGGUGCC (structured_RNA) [FAM-14mer tetraloop]
binding result (MBP-FL DDX3X [12]; label: 5'-FAM, hairpin): no binding

UAGGGUUAGGGU (structured_RNA) [FAM-telomeric GQ RNA]
Kd (MBP-FL DDX3X [4]; [16]): 54 ± 14 nM | Kd (MBP-Core-C DDX3X; [16]): 579 ± 69 nM | Kd (DDX3X N-IDR [5]; label: 5'-FAM, parallel G4, dimer of 2 strands): 1000 ± 200 nM

AGUAGGGAGCGGCGUGCCGUGGGGC (structured_RNA) [ODC1 150-174]
Kd (DDX3X N-IDR [5]; label: 5'-FAM in EMSA, G4, heterogeneous): 1970 ± 230 nM

UUUUUUUUUUUU (ssRNA) [poly-U12]
binding result (MBP-FL DDX3X [12]; label: 3'-FAM): no binding | binding result (DDX3X N-IDR [13]): no binding

UGUGGGAGGGGCGGGUCUGGGUGC (structured_RNA) [NRAS GQ RNA]
Kd (DDX3X N-IDR [14]): 1400 nM | binding result (RR-3 fragment [15]): binds | binding result (RR-1 fragment [9]; G4 monomer): binds | binding result (RR-2 fragment [10]; G4 monomer): binds

UGUAGAAAGAGCAGAUCUAGAUGC (ssRNA) [FAM-NRAS mutant RNA]
Kd (MBP-FL DDX3X [4]; GQ abolished): 222 ± 9 nM | Kd (DDX3X N-IDR [5]; label: 5'-FAM, GQ abolished): 6000 ± 800 nM

GAAAGUAGAGGGAGGGAUAGUCUAC (structured_RNA) [MITF 62-86]
binding result (DDX3X N-IDR [7]; G4): binds
